Laboratory results taken from patent publication US20240052044A1 (VIB VZW, published 2024).
Changes are numbered by the printed parent chain. Names may count otherwise.

B1: VHH-123 (VHH)
VHH: DVQLVESGGGLVQPGGSLRLSCTASGRTFTNYKSNYKMAWFRQAPGKARAFVGRTDWTGSSAIIANSVKGRFTISRDNAKNTVYLQMNSLRPEDTAVYYCAAGTTIGQYTYWGQGTLVTVSS
notes: also called VHH-69(E1D, N55S, D65G); not shown: C-terminal His6 tag (no FLAG3 tag)
B2: VHH-124 (VHH)
VHH: B1 VHH with S60K
notes: also called VHH-69(E1D, N55K, D65G); not shown: C-terminal His6 tag (no FLAG3 tag)

Biological target: T1, human CCR8 (human, UniProt P51685 1-355)
T1 construct: On stably transfected HEK293 cells or CHO-K1 cells; also called hCCR8
T1 sequence (P51685 whole entry): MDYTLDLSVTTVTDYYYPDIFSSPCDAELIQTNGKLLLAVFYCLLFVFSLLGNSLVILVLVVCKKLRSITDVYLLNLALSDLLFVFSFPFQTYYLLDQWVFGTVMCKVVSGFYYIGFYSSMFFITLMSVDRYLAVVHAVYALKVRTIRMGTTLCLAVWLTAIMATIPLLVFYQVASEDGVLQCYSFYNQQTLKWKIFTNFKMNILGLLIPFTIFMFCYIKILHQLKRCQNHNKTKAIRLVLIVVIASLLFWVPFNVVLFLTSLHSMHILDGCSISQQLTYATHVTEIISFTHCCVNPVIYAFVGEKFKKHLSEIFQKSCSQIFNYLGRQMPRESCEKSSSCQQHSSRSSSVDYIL
Test: competition flow cytometry on hCCR8 HEK293 cells; competitor FLAG3-tagged VHH-69

IC50	fold more potent competition IC50 against the control VHH-69(E1D)	Binder
0.71 nM		B1
0.25 nM	2 fold	B2
